Experimental data from patent US20250282890A1 (TECHNISCHE UNIVERSIT T M NCHEN, published 2025).
Residue numbers refer to the chain shown, from its start.

B1: 6-5D3-hFab (Fab, V domains shown)
VH: EVQLVESGGGLVQPGGSLRLSCAASGYAFNTSWMNWVRQAPGKGLEWISRIYPGDGDTNYNGKFKGKATISADKSKNTLYLQMNSLRAEDTAVYYCARGEWYLYYFDYWGQGTLVTVSS
VL: DIQMTQSPSSLSASVGDRVTITCSASQGINNFLTWYQQKPGKALKLLIYYTSSLHSGVPSRFSGSGSGTDYTLTISSLQPEDFATYYCQQYSNLPFTFGQGTKVEIK
notes: Humanized Fab with a TwinStrep tag at the C-terminus of the CH1 constant domain; also called version 6 of 5D3-Fab; antibody 6 (Fab format)
B2: 2-5D3-IgG1 (antibody, V domains shown)
VH: QVQLVQSGAEVKKPGASVKVSCKASGYAFNTSWMNWVRQAPGQGLEYIGRIYPGDGDTNYNGKFKGKATMTADKSISTVYMEVRRLRSDDTAVYYCARGEWYLYYFDYWGQGTLVTVSS
VL: B1 VL with Q38H, K39E, S77T, Q100G
notes: also called full-length humanized 5D3 version 2
B3: 6-5D3-IgG1 (antibody, V domains shown)
VH: B1 VH
VL: B1 VL
modifications: N-glycosylation at VH N30
notes: also called h5D3; humanized 5D3
B4: 2-5D3-hFab (Fab, V domains shown)
VH: B2 VH
VL: B1 VL with Q38H, K39E, S77T, Q100G
notes: Humanized Fab with a TwinStrep tag at the C-terminus of the CH1 constant domain; also called version 2 of 5D3-Fab; antibody 2
B5: 5-5D3-IgG1 (antibody, V domains shown)
VH: B2 VH with A9P, K19R, V20L, Y47W, I76T, S77N, V79A, V83L, R85S, A97G
VL: B1 VL with L11V, T22S, P40L, K45Q, Q100P, E105D
notes: also called full-length humanized 5D3 version 5
B6: 5-5D3-hFab (Fab, V domains shown)
VH: B2 VH with A9P, K19R, V20L, Y47W, I76T, S77N, V79A, V83L, R85S, A97G
VL: B1 VL with L11V, T22S, P40L, K45Q, Q100P, E105D
notes: Humanized Fab with a TwinStrep tag at the C-terminus of the CH1 constant domain; also called version 5 of 5D3-Fab; antibody 5
B7: h5D3 variant LVg2HVg7 (antibody, human IgG1, V domains shown)
VH: B1 VH with N30Q
VL: B1 VL with N30E
notes: Full-length human IgG1 kappa variant of h5D3 (antibody 6)
B8: h5D3 variant HVg5 (antibody, human IgG1, V domains shown)
VH: B1 VH with N30Q, D55E, D57S, G62A
VL: B1 VL
notes: as for B7
B9: h5D3 variant HVg3 (antibody, human IgG1, V domains shown)
VH: B1 VH with N30Q, D55E, D57E, G62A
VL: B1 VL
notes: as for B7
B10: h5D3 variant LVg2HVg4 (antibody, human IgG1, V domains shown)
VH: B1 VH with N30Q, D55E, G62A
VL: B1 VL with N30E
notes: as for B7
B11: h5D3 variant LVg2HVg2 (antibody, human IgG1, V domains shown)
VH: B1 VH with N30Q, G56A, G62A
VL: B1 VL with N30E
notes: as for B7
B12: h5D3 variant HVg2 (antibody, human IgG1, V domains shown)
VH: B1 VH with N30Q, G56A, G62A
VL: B1 VL
notes: as for B7
B13: h5D3 variant LVg2 (antibody, human IgG1, V domains shown)
VH: B1 VH
VL: B1 VL with N30E
notes: as for B7
B14: h5D3 variant LVg2HVg3 (antibody, human IgG1, V domains shown)
VH: B1 VH with N30Q, D55E, D57E, G62A
VL: B1 VL with N30E
notes: as for B7
B15: h5D3 variant LVg2HVg5 (antibody, human IgG1, V domains shown)
VH: B1 VH with N30Q, D55E, D57S, G62A
VL: B1 VL with N30E
notes: as for B7
B16: h5D3 variant HVg4 (antibody, human IgG1, V domains shown)
VH: B1 VH with N30Q, D55E, G62A
VL: B1 VL
notes: as for B7
B17: h5D3 variant HVg7 (antibody, human IgG1, V domains shown)
VH: B1 VH with N30Q
VL: B1 VL
notes: as for B7

How the values were obtained:
[1] = molecular target: T1, human PSMA displayed on the surface of LNCaP cells (human, UniProt Q04609 1-750); assay: flow cytometry titration on cells (three-fold dilution series, anti-Strep antibody and goat anti-mouse Alexa Fluor 647); the sheet does not name the cell line, the text gives the curves as binding to cell-surface PSMA (LNCaP)
T1 construct: Endogenous PSMA on living LNCaP cells; also called PSMA-positive LNCaP cells
Experimental: FIG. 5—Affinity of Fab variants determined by flow cytometry. LNCaP (PSMA-positive) and DU145 (PSMA-negative) cell lines were probed with three-fold dilution series of tested Fab variants and bound antibodies visualized by the combination of anti-Strep and goat anti-mouse Alexa-Fluor647 antibodies. Cell samples were analyzed using a LSRFortessa flow cytometer and binding curves were fitted using a non-linear regression algorithm.
(§1) Flow cytometry was used to analyze affinity and specificity of 5D3-hFabs for PSMA in its physiological environment, i.e., at the surface of living cells. To this end, LNCaP and DU145 cells were used as representatives of PSMA-positive and PSMA-negative cell lines, respectively, in a protocol described previously (Novakova, Belousova et al. (2020), Int. J. Mol. Sci., 21(18):6672). Briefly, cells were treated by three-fold dilution series of 5D3-hFabs in the concentration range 6000 nM-0.42 pM. Bound 5D3-hFabs were detected by the combination of anti-Strep tag antibody and goat anti-mouse secondary antibody conjugated to Alexa Fluor 647. Cell samples were immediately analyzed using a LSRFortessa flow cytometer.

[2] = molecular target: T1, human PSMA displayed on the surface of …; assay: flow cytometry on LNCaP cells, Fab titrated
Experimental: as §1

[3] = molecular target: T2, recombinant human PSMA (prostate-specific membrane antigen), biotin-tagged (human, UniProt Q04609 44-750, biotin tag (site not stated)); assay: native ELISA, streptavidin-captured biotin-tagged PSMA, Fab titrated
T2 construct: also called biotin-tagged PSMA; biotin-labelled PSMA
Experimental: (§2) Native ELISA was used to measure affinity of 5D3-hFabs for human PSMA. Experiments were performed in 96-well MaxiSorp plates coated with streptavidin complexed with biotin-tagged PSMA. Purified 5D3-hFabs were applied in 2-fold dilution series in the concentration range of 2000 nM-0.95 pM and goat anti-human secondary antibody conjugated to horseradish peroxidase, together with the TMB substrate, was used for 5D3-hFabs detection. Data were processed using a Prism 6 software (GraphPad, San Diego, CA) and binding curves fitted using an embedded non-linear curve-fitting algorithm (FIG. 4, Table 1). Affinity of all variants tested was in a single-digit nanomolar range (1.8-2.7 nM) and virtually identical to the parent murine and chimeric Fabs, documenting successful humanization results.

[4] = molecular target: T2, recombinant human PSMA …; assay: ELISA on plates coated with recombinant PSMA (biotin-tagged, captured on streptavidin), two-fold dilution series, goat anti-human-HRP and TMB
Experimental: (§3) FIG. 4—Affinity of Fab variants determined by ELISA. Plates coated with recombinant PSMA were probed with two-fold dilution series of individual fragments and binding visualized using goat anti-human secondary antibody conjugated to horseradish peroxidase together with the TMB substrate. Binding curves were fitted using a non-linear regression algorithm.
as §2

[5] = molecular target: T2, recombinant human PSMA …; assay: native ELISA, streptavidin-captured biotin-tagged PSMA, IgG1 titrated
Experimental: as §2
Native ELISA was used to measure affinity of humanized 5D3-IgG1s for human PSMA in an experimental setup described above and binding curves together with corresponding KD values shown in FIG. 10 and Table 2, respectively. Affinity of all variants tested was in a picomolar range (260-380 pM) and virtually identical to the parent murine and chimeric full-length IgG1s, documenting successful outcome of the humanization process.

[6] = molecular target: T2, recombinant human PSMA …; assay: ELISA on plates coated with recombinant PSMA, two-fold dilution series, goat anti-human-HRP and TMB
[7] = molecular target: T1, human PSMA displayed on the surface of …; assay: flow cytometry on LNCaP cells, IgG1 titrated
Experimental: as §1
Flow cytometry was used to analyze affinity and specificity of humanized 5D3-IgG1s for PSMA in its physiological environment as described above and data are shown in FIG. 11 and Table 2.

[8] = molecular target: T2, recombinant human PSMA …; assay: PSMA ELISA on plates coated with recombinant PSMA, two-fold dilution series, goat anti-human-HRP and TMB
[9] = molecular target: T2, recombinant human PSMA …; assay: ELISA on plates coated with recombinant PSMA, column head 'ELISA (nM)'
Experimental: as §3, with “16—Affinities” for “4—Affinity”, “optimized full-length antibodies” for “Fab variants”, “antibodies” for “fragments”, “binding was” for “binding”
(§4) Also, the affinity of the optimized humanized 5D3 variants was determined by ELISA (FIG. 16, Table 4).

[10] = molecular target: T2, recombinant human PSMA …; assay: PSMA ELISA on plates coated with recombinant PSMA, two-fold dilution series, goat anti-human-HRP and TMB; remark: listed apart in the source
Experimental: as §3, with “16—Affinities” for “4—Affinity”, “optimized full-length antibodies” for “Fab variants”, “antibodies” for “fragments”, “binding was” for “binding”
as §4

T2 sequence (Q04609 44-750 limits assumed): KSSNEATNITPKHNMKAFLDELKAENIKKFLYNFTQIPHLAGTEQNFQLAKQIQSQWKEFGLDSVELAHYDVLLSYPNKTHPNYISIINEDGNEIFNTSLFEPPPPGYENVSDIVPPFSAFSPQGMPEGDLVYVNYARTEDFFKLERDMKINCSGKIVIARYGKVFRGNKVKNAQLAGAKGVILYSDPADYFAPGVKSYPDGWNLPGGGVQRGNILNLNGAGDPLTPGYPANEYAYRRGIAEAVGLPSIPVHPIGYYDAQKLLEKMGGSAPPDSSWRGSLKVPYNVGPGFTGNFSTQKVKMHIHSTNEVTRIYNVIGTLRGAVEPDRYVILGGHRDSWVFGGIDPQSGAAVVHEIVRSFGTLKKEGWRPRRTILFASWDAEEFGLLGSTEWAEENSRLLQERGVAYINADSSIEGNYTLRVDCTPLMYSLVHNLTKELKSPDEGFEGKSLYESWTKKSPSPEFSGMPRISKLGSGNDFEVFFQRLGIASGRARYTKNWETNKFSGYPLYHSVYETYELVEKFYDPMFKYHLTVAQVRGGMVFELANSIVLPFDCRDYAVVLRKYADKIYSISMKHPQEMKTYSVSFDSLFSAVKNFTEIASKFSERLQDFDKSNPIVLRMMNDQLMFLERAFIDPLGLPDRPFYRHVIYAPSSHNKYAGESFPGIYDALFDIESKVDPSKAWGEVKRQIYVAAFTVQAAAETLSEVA
T1 sequence (Q04609 whole entry): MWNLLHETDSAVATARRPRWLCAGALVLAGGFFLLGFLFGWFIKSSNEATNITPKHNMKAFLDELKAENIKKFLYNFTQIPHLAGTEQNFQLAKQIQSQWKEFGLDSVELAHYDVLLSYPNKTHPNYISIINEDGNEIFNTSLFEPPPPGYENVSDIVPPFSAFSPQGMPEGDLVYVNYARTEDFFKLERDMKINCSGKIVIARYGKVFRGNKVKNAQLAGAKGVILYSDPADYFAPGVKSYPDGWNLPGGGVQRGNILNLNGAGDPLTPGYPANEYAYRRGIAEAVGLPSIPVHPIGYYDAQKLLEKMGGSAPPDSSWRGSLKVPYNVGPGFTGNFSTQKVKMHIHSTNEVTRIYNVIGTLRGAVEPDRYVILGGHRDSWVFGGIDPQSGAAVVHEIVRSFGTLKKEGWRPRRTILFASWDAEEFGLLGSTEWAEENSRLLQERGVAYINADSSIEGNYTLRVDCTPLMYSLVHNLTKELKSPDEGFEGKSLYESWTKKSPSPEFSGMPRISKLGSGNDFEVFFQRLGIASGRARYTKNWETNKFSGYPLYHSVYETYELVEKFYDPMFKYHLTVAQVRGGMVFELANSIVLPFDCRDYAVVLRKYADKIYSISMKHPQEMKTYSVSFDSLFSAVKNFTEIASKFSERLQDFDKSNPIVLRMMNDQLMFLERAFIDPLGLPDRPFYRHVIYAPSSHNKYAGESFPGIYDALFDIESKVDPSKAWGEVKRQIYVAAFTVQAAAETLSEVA

Row | Binder | EC50 (read off the curve) [8] | Kd [9] | EC50 (read off the curve) [10] | also measured
1 | B1 | – | – | – | EC50 (read off the curve) [1]: ~3 nM; Kd [2]: 2.8 nM; Kd [3]: 1.8 nM; EC50 (read off the curve) [4]: ~4 nM
2 | B2 | – | – | – | Kd [5]: 0.26 nM; EC50 (read off the curve) [6]: ~0.3 nM; Kd [7]: 0.64 nM
3 | B3 | ~0.4 nM | 0.25 nM | ~0.5 nM | Kd [5]: 0.38 nM; EC50 (read off the curve) [6]: ~0.4 nM; Kd [7]: 0.56 nM
4 | B4 | – | – | – | EC50 (read off the curve) [1]: ~3 nM; Kd [2]: 3 nM; Kd [3]: 2.7 nM; EC50 (read off the curve) [4]: ~2 nM
5 | B5 | – | – | – | Kd [5]: 0.39 nM; EC50 (read off the curve) [6]: ~0.4 nM; Kd [7]: 0.77 nM
6 | B6 | – | – | – | EC50 (read off the curve) [1]: ~4 nM; Kd [2]: 4.1 nM; Kd [3]: 1.8 nM; EC50 (read off the curve) [4]: ~4 nM
7 | B7 | – | 0.37 nM | ~0.4 nM | –
8 | B8 | – | 0.06 nM | ~0.2 nM | –
9 | B9 | ~0.9 nM | 0.93 nM | – | –
10 | B10 | – | 0.5 nM | ~0.5 nM | –
11 | B11 | ~0.5 nM | 0.47 nM | – | –
12 | B12 | ~0.4 nM | 0.34 nM | – | –
13 | B13 | ~0.4 nM | 0.29 nM | – | –
14 | B14 | ~3 nM | 2.69 nM | – | –
15 | B15 | – | 0.2 nM | ~0.4 nM | –
16 | B16 | – | 0.36 nM | ~0.4 nM | –
17 | B17 | – | 0.35 nM | ~0.4 nM | –
